{"source": "patent US20130251728A1", "key": {"[1]": {"biological_target": "mouse GCGR (full-length, on HEK293 reporter cells) (mouse) (UniProt Q61606)", "sequence (Q61606 27-485 limits assumed)": "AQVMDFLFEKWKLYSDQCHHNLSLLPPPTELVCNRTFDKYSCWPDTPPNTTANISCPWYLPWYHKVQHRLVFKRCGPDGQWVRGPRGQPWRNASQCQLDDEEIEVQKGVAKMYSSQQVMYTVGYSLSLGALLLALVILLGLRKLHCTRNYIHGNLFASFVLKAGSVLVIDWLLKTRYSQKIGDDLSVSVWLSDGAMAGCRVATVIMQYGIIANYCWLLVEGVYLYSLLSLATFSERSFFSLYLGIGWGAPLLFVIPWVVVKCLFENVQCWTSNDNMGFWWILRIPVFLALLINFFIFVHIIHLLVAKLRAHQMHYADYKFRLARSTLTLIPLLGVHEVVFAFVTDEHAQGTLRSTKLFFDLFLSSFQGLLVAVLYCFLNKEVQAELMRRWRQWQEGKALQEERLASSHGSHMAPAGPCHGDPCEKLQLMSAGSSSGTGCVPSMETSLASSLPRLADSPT", "assay": "cell-based or functional assay"}, "[2]": {"biological_target": "rat GCGR (full-length, on transiently transfected HEK293 reporter cells) (rat) (UniProt P30082)", "sequence (P30082 27-485 limits assumed)": "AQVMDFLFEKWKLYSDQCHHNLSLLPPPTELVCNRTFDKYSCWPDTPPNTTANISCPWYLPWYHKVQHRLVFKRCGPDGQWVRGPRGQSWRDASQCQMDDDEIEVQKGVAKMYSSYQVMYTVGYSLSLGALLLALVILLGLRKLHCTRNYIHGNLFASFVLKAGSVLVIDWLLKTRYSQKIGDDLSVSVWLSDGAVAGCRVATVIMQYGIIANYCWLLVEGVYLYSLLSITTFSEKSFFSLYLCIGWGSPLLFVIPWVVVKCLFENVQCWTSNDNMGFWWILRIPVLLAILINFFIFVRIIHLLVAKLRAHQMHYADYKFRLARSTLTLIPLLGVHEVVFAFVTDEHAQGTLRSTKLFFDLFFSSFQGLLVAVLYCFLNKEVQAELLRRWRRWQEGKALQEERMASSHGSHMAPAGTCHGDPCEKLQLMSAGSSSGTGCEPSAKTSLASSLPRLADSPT", "assay": "cell-based or functional assay"}}, "data": [{"substance": "glucagon (GCG) (from UniProt P01275 53-81) (ligand)", "values": [{"measurement": "EC50, luciferase activity in HEK293/mGCGR reporter cells", "setting": "[1]", "result": 0.083, "unit": "nM"}, {"measurement": "EC50, luciferase activity in HEK293 reporter cells transfected with rat GCGR", "setting": "[2]", "result": 0.252, "unit": "nM"}]}]}
